Assay results reported in patent publication US9322042B2, “Thermostable cellulases, and mutants thereof, capable of hydrolyzing cellulose in ionic liquid” (The Regents of the University of California, priority 2009, dated 2016).
Values belong to the molecule of their own block, whether it stands above or below them.

How the values were obtained:
Type in all cases: biochemical
[1] = Enzyme stability: overnight pre-incubation in [C2mim][OAc] and half-life; settings: pre-incubation overnight (15 h) in 15% [C2mim][OAc]
[2] = Activity assay on insoluble substrate: Avicel
Excerpt: (§1) Corn stover refers to stalks, leaves and cobs that remain in the fields after the corn kernel harvest and is the largest quantity of biomass residue in the United States and as such is also a LC-biomass source for producing cellulosic ethanol in the United States. [C2mim][OAc] pretreated corn stover is used as a substrate to verify enzymatic efficiency on IL-pretreated biomass and a comparison made with [C2mim][OAc] pretreated Avicel. Avicel is a commercially available microcrystalline cellulose and a good model substrate for analysis. Similar assays are done in the presence of [C2mim][OAc] to simulate real biomass processing and saccharification scenarios. The assay products for the reactions in the presence of IL are detected by high performance anion exchange chromatography (HPAEC). The enzymatic hydrolysis reaction is carried out for 8 h for the T. viride cellulase and 15 h for the hyperthermophilic enzymes, taking into account the half-lives of these enzymes. To compare the amounts of total sugars formed between different reactions, the sum of glucose, xylose and cellobiose are calculated and reported as mmoles of sugars formed per min per mg of enzyme used (Table 7). A comparison of assay results between pretreated and untreated substrate indicates a 2-6 fold increase in hydrolysis products after pretreatment irrespective of the enzyme used, thereby confirming that IL pretreatment can increase the efficiency of hydrolysis of cellulose recovered from biomass. […] The catalytic efficiency of the fungal enzyme however, decreases with increasing IL concentration in the reaction mix. After normalizing for the reaction time and enzyme amounts, the amount of sugars formed is undetectable at 15% [C2mim][OAc]. […] The yield of sugars from Tma Cel5A hydrolysis of pretreated Avicel in the presence of 15% IL decreases by 43% compared to 0% IL, while the decrease is only 10% in the case of Pho EG on the same substrate under similar conditions (Table 7).
(§2) The hydrolysis reactions are performed under pH and temperatures for each enzyme as described herein. The reactions are run over a 14 h period with 5-10 mg of enzyme with 6% (w/v) enzyme loading in optimum buffer for each enzyme and run in duplicate. The reaction products are measured on a HPLC and HPAEC. The amounts of sugars detected are shown in mmoles and normalized with regards to amount of enzyme and time of reaction. Different reactions under each enzyme were run under exactly similar conditions.
Enzymatic activity is measured on soluble polysaccharide substrates, CMC, using the 3,5-dinitrosalicylic acid (DNS) reducing sugar assay. Briefly, 2% CMC (w/v) in […] acetate buffer, (100 mM, pH 4.5 and pH 4.8 for T. viride and Tma, respectively, and 100 mM MES buffer, pH 6.4 for P. hori EG) is incubated at 80° C. for 30 min for Tma Cel5A and Pho enzymes and 37° C. and 10 min for T. viride. The solution is cooled down to 4° C. and […] of DNS solution is added. The reactants are incubated at 95° C. for 5 min and cooled down to room temperature before the absorbance is read at 540 nm. The reducing sugar concentration in the sample is calculated from its absorbance using the standard curve of D-glucose and cellobiose. For hydrolysis reactions in the presence of [C2mim][OAc], control reactions with CMC in the presence of IL but without no enzyme is subtracted from each measurement. The solid substrate (Avicel and corn stover) hydrolysis reactions are conducted at 80° C. for 15 h for the recombinant enzymes and at 37° C. for 8 h in the case of T. viride cellulose at the optimum pH for each enzyme. The reaction products are monitored using an Agilent 1200 HPLC equipped with Varian 380-LC Evaporative Light Scattering Detector. The total reaction volumes are […] and shaken at 900 rpm at temperature controlled shakers. Enzyme loadings are 0.4 mg per g of glucan and each data point is measured in triplicate. […]

[3] = Activity assay on insoluble substrate: [C2mim][OAc] pretreated Avicel; settings: for decrease of the yield of sugars from hydrolysis of pretreated Avicel: 15% IL compared to 0% IL; for Sugars produced (sum of glucose, cellobiose and xylose): pAvicel
Excerpt: as §1, §2
[C2mim][OAc] (1 kg, as received, <0.2% moisture specified) is heated to 130° C. in a 1.5 L glass reaction vessel with mechanical stirring and 8% w/w (corn stover, 4.8% moisture) or 10% w/w (Avicel PH-101, 3% moisture). After around 3 h when the majority (corn stover) or all (Avicel) has dissolved, the dissolved corn stover or Avicel is allowed to cool to below 80° C. and is added to 2 L of 95% ethanol with rapid agitation to induce the precipitation of dissolved materials. The resulting slurry is filtered under pressure through polypropylene filter cloth and the solids redispersed in 2 L of additional ethanol. The filtration and redispersion steps are repeated twice to remove most residual ionic liquid and the filter cake dried under vacuum at 40° C. to yield a free-flowing powder product. Residual free ionic liquid remaining in the dried biomass is estimated to be less than 4% (w/w).
Enzymatic activity is measured on soluble polysaccharide substrates, CMC, using the 3,5-dinitrosalicylic acid (DNS) reducing sugar assay. Briefly, 2% CMC (w/v) in […] acetate buffer, (100 mM, pH 4.5 and pH 4.8 for T. viride and Tma, respectively, and 100 mM MES buffer, pH 6.4 for P. hori EG) is incubated at 80° C. for 30 min for Tma Cel5A and Pho enzymes and 37° C. and 10 min for T. viride. The solution is cooled down to 4° C. and […] of DNS solution is added. The reactants are incubated at 95° C. for 5 min and cooled down to room temperature before the absorbance is read at 540 nm. […]

activity retained after pre-incubation [1]: 70%
B1: Pho EG: cellulase of Pyrococcus horikoshii strain OT3 (Accession No. NP_143072); SEQ ID NO: 21 (protein, listed as Pyrococcus horikoshii)
chain: MEGNTILKIVLICTILAGLFGQVVPVYAENTTYQTPTGIYYEVRGDTIYMINVTSGEETPIHLFGVNWFGFETPNHVVHGLWKRNWEDMLLQIKSLGFNAIRLPFCTESVKPGTQPIGIDYSKNPDLRGLDSLQIMEKIIKKAGDLGIFVLLDYHRIGCTHIEPLWYTEDFSEEDFINTWIEVAKRFGKYWNVIGADLKNEPHSVTSPPAAYTDGTGATWGMGNPATDWNLAAERIGKAILKVAPHWLIFVEGTQFTNPKTDSSYKWGYNAWWGGNLMAVKDYPVNLPRNKLVYSPHVYGPDVYNQPYFGPAKGFPDNLPDIWYHHFGYVKLELGYSVVIGEFGGKYGHGGDPRDVIWQNKLVDWMIENKFCDFFYWSWNPDSGDTGGILQDDWTTIWEDKYNNLKRLMDSCSKSSSSTQSVIRSTTPTKSNTSKKICGPAILIILAVFSLLLRRAPR
Sugars produced (sum of glucose, cellobiose and xylose) ([2]; 0% [C2mim][OAc]): 0.54 ± 0.1 µmol/min/mg
Sugars produced (sum of glucose, cellobiose and xylose) ([2]; 5% [C2mim][OAc]): 0.5 ± 0.1 µmol/min/mg
Sugars produced (sum of glucose, cellobiose and xylose) ([2]; 10% [C2mim][OAc]): 0.52 ± 0.1 µmol/min/mg
Sugars produced (sum of glucose, cellobiose and xylose) ([2]; 15% [C2mim][OAc]): 0.6 ± 0.08 µmol/min/mg
decrease of the yield of sugars from hydrolysis of pretreated Avicel [3]: 10%
Sugars produced (sum of glucose, cellobiose and xylose) ([3]; 0% [C2mim][OAc]): 3.2 ± 0.2 µmol/min/mg
Sugars produced (sum of glucose, cellobiose and xylose) ([3]; 5% [C2mim][OAc]): 3.3 ± 0.2 µmol/min/mg
Sugars produced (sum of glucose, cellobiose and xylose) ([3]; 10% [C2mim][OAc]): 3.1 ± 0.2 µmol/min/mg
Sugars produced (sum of glucose, cellobiose and xylose) ([3]; 15% [C2mim][OAc]): 2.9 ± 0.06 µmol/min/mg

activity retained after pre-incubation [1]: 44%
B2: Tma Cel5A: wild-type cellulase of Thermatoga maritima strain MSB8 (Accession No. NP_229549); SEQ ID NO: 20 (protein, listed as Thermotoga maritima)
chain: MGVDPFERNKILGRGINIGNALEAPNEGDWGVVIKDEFFDIIKEAGFSHVRIPIRWSTHAYAFPPYKIMDRFFKRVDEVINGALKRGLAVVINIHHYEELMNDPEEHKERFLALWKQIADRYKDYPETLFFEILNEPHGNLTPEKWNELLEEALKVIRSIDKKHTIIIGTAEWGGISALEKLSVPKWEKNSIVTIHYYNPFEFTHQGAEWVEGSEKWLGRKWGSPDDQKHLIEEFNFIEEWSKKNKRPIYIGEFGAYRKADLESRIKWTSFVVREMEKRRWSWAYWEFCSGFGVYDTLRKTWNKDLLEALIGGDSIE
Sugars produced (sum of glucose, cellobiose and xylose) ([2]; 0% [C2mim][OAc]): 1.1 ± 0.1 µmol/min/mg
Sugars produced (sum of glucose, cellobiose and xylose) ([2]; 5% [C2mim][OAc]): 1.0 ± 0.2 µmol/min/mg
Sugars produced (sum of glucose, cellobiose and xylose) ([2]; 10% [C2mim][OAc]): 0.9 ± 0.1 µmol/min/mg
Sugars produced (sum of glucose, cellobiose and xylose) ([2]; 15% [C2mim][OAc]): 0.6 ± 0.1 µmol/min/mg
decrease of the yield of sugars from hydrolysis of pretreated Avicel [3]: 43%
Sugars produced (sum of glucose, cellobiose and xylose) ([3]; 0% [C2mim][OAc]): 6.6 ± 0.8 µmol/min/mg
Sugars produced (sum of glucose, cellobiose and xylose) ([3]; 5% [C2mim][OAc]): 6 ± 0.5 µmol/min/mg
Sugars produced (sum of glucose, cellobiose and xylose) ([3]; 10% [C2mim][OAc]): 5.7 ± 1^ μmoles min^−1 mg^−1
Sugars produced (sum of glucose, cellobiose and xylose) ([3]; 15% [C2mim][OAc]): 4 ± 0.5 µmol/min/mg
